B1: "Secreted effector protein EspF(U)" (Escherichia coli O157:H7), P0DJ88 (parent)
chain: MINNVSSLFPTVNRNITAVYKKSSFSVSPQKITLNPVKISSPFSPSSSSISATTLFRAPNAHSASFHRQSTAESSLHQQLPNVRQRLIQHLAEHGIKPARSMAEHIPPAPNWPAPPPPVQNEQSRPLPDVAQRLVQHLAEHGIQPARNMAEHIPPAPNWPAPPLPVQNEQSRPLPDVAQRLVQHLAEHGIQPARSMAEHIPPAPNWPAPPPPVQNEQSRPLPDVAQRLMQHLAEHGIQPARNMAEHIPPAPNWPAPTPPVQNEQSRPLPDVAQRLMQHLAEHGIQPARNMAEHIPPAPNWPAPTPPVQNEQSRPLPDVAQRLMQHLAEHGINTSKRS
partner: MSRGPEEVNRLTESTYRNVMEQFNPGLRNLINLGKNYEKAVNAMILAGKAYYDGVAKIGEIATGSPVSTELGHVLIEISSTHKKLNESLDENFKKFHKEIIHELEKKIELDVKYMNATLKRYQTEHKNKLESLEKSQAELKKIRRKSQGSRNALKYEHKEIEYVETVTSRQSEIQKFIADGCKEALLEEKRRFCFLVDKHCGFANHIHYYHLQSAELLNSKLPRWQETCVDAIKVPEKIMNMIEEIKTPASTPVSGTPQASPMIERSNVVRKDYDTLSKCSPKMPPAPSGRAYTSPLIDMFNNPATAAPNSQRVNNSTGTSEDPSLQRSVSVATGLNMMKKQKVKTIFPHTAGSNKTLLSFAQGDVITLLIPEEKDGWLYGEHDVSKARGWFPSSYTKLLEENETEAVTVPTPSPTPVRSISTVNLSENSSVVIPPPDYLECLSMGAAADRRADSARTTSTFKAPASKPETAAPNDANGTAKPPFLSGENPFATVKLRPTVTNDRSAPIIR
B2: Epidermal growth factor receptor kinase substrate 8 (Homo sapiens), Q12929 (parent)
chain: MNGHISNHPSSFGMYPSQMNGYGSSPTFSQTDREHGSKTSAKALYEQRKNYARDSVSSVSDISQYRVEHLTTFVLDRKDAMITVDDGIRKLKLLDAKGKVWTQDMILQVDDRAVSLIDLESKNELENFPLNTIQHCQAVMHSCSYDSVLALVCKEPTQNKPDLHLFQCDEVKANLISEDIESAISDSKGGKQKRRPDALRMISNADPSIPPPPRAPAPAPPGTVTQVDVRSRVAAWSAWAADQGDFEKPRQYHEQEETPEMMAARIDRDVQILNHILDDIEFFITKLQKAAEAFSELSKRKKNKKGKRKGPGEGVLTLRAKPPPPDEFLDCFQKFKHGFNLLAKLKSHIQNPSAADLVHFLFTPLNMVVQATGGPELASSVLSPLLNKDTIDFLNYTVNGDERQLWMSLGGTWMKARAEWPKEQFIPPYVPRFRNGWEPPMLNFMGATMEQDLYQLAESVANVAEHQRKQEIKRLSTEHSSVSEYHPADGYAFSSNIYTRGSHLDQGEAAVAFKPTSNRHIDRNYEPLKTQPKKYAKSKYDFVARNNSELSVLKDDILEILDDRKQWWKVRNASGDSGFVPNNILDIVRPPESGLGRADPPYTHTIQKQRMEYGPRPADTPPAPSPPPTPAPVPVPLPPSTPAPVPVSKVPANITRQNSSSSDSGGSIVRDSQRHKQLPVDRRKSQMEEVQDELIHRLTIGRSAAQKKFHVPRQNVPVINITYDSTPEDVKTWLQSKGFNPVTVNSLGVLNGAQLFSLNKDELRTVCPEGARVYSQITVQKAALEDSSGSSELQEIMRRRQEKISAAASDSGVESFDEGSSH
partner: B1 partner

Variants of: B1
Settings: with bi2l1_human BAIAP2L1, Q9UHR4
In the case of W300A, the “effect of a mutation on the interaction” value is reported as “decreasing interaction strength”.

Variants of: B1
Settings: with bi2l1_human BAIAP2L1, Q9UHR4
Remark: another data set of the same source
With W300A the “effect of a mutation on the interaction” value was “disrupting interaction strength”.

Variants of: B2
Settings: with bi2l1_human BAIAP2L1, Q9UHR4
For A215W, the “effect of a mutation on the interaction” value was “increasing interaction strength”.

From IntAct's records for PubMed 22921828
